The term stoichiometry N denotes a count of units in the complex or per binding partner.

One data set concerns the target T1, SAMD1-WH(27-105) (Homo sapiens, UniProt Q6SPF0 27-105).
T1 sequence: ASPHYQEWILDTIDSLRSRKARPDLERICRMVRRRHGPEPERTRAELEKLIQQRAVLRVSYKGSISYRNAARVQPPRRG
The data set can be described thus: X-ray crystallography.

The data set “SEC + native MS” concerns the molecule itself. The data set can be described thus: SEC + native MS.

B1: 13-bp CpG DNA (dsDNA)
DNA 1: ACCTGCGCACCAT
DNA 2: ATGGTGCGCAGGT
Take B1: the binding result with SAMD1-WH(27-105) is on record as “binds”.

B2: WT SAMD1-SAM (construct of the solution experiments not stated) (domain or fragment, human, UniProt Q6SPF0 462-530, looked up)
chain: WTVMDVVEYFTEAGFPEQATAFQEQEIDGKSLLLMQRTDVLTGLSIRLGPALKIYEHHIKVLQQGHFED
On to B2, for which, in “SEC + native MS”, the “stoichiometry N” value turned out to be 5.
